Experiment: soluble on expression in E. coli; label from the status in PepcDB or PDB records

Soluble on expression in E. coli, not soluble:
MGSDKIHHHHHHMKMDFKIRIAQQSDSAELRDLYKNTVLVVNRRDYSQDEVEDWASCGDDLSNIEEMIKTHYFIVAVNQLSQIVGFSSITPQGYLHSMFIHADFQGKGIATMLLEEIERYAITKGIIQITSEVSLTARPFFEKQKYVVKKEQKRQANKLNLTNFWMAKTLSVIKPYHGRIPACGVFCGGCPSYTRDEKICQGAEENKTRCEKCRTFYLCCVEKGITHCYQCHLFPCTKFKGFTKRWLKYGQDFIENQKFLKQVGEMEFLRFYNEKVTD, MGSDKIHHHHHHMKMKEFLDLLNESRLTVTLTGAGISTPSGIPDFRGPNGIYKKYSQNVFDIDFFYSHPEEFYRFAKEGIFPMLQAKPNLAHVLLAKLEEKGLIEAVITQNIDRLHQRAGSKKVIELHGNVEEYYCVRCEKKYTVEDVIKKLESSDVPLCDDCNSLIRPNIVFFGENLPQDALREAIGLSSRASLMIVLGSSLVVYPAAELPLITVRSGGKLVIVNLGETPFDDIATLKYNMDVVEFARRVMEEGGIS, MGSDKIHHHHHHMKNLFLFCRAGYEKECAAEIQQRAAEMNVGGFVKTTNNDAYVIYQCFEDDGADTLAKMLPLNSLIFARQMFAASELHSDLPEQDRVGPLVASLLEADVTKCGELRVETPDTNEAKELSAFCRKFTVPLRQGLKKVGVLLDKENGRRPIIHVCFVGPGKAYVGYSLSNNSSPHFMGIPRLRMAADAPSRSSLKLDEAFGAFLTKEEQEMRCRSGLKAVDLGACPGGWTYQLVRRGMMVAAVDNGPMDEKLMETGQVKHYRADGFRFEPPRKNIYWLVCDMVEKPSRVAELMEAWAINGWFKEAIFNLKLPMKSRYKEVRVILDTMGEIFKENEIDYRLQCKHLYHDRDEVTVHLWIFPEKGVSYAEMG, MGSDKIHHHHHHMKNLLSTREVAQFLGVNEKMVYTLISDKGLPATKVTGKWLFPAHLVEQWVENSTINFPRRHESAPPAEGVLLVAGSNDILFERTLRLFMDAQPDYIAAFANMGSMGGIKALRRGVCHMATSHLKQEDGAEYNFAHAERELEERPAVVNFCLREQGLLVPRGNPAGISCVADVAGGGLTVANRPLGTGTRLLFDSELAAAGINPARLKGYENEFSRHMDVGLEVLSGRADTAPAIRAVAGLLGLDFIPLGWERFDLLIPRDTFFERHIQLFMGLFTTPEFAALAGQLEGYDTSRAGRVVFPGETLRETRR, MGSDKIHHHHHHMKNYKFLVPILLVALLGGSVYKTYSDREKINKQYDNDITQARQNRKLEVYVNAEEDYLDALKLKDSAKLRAELGEMYIEAEDLRTAAKWGESLISEYPKEQVGYEFLIQVYLEQKDYASCFRIKDEADGLKISSKKIEEIISDIKYEYYLEGEYAQVEEFSNGYAAVKKEKKWGYLNSKGHRVIESEFEEAGAFAKEVAPVIDDKGRAFYIDNEGNRKIVIDFVDNIEKLGYMSMDNIFPVNDGKKWSLYSLDSKKKIAGDYDEVSAMGNGVAAVKSDDKWSLIDTKGKKVTKDKYDSVVMDSKGIVCRNDRVFAKQNGYYYLFDSKGNKVVKTKFDDARLFADDGYAAVCVDGKWGFVDKDGKQVIKPQFNEAHSFSNGLAAVRFSNGWGYVDEKGNKVIETGFDDACDFNEQGKTFVKTDDKWQVLTLYLYNHES, MGSDKIHHHHHHMKPIQLPLSVRLRDDATFANYYPGANAAALGYVERLCEAEAGWAESLIYLWGHDGVGRSHLLQAACLRFEQFEERTIYLPMADLVQYGPEIFDDLEQCELVCIDDLDVLVGKREWEEGLFHLFNRLRDTGRRLLLAASKSPRELQVKLPDLKSRLTMALIFQLHGLSDEDKLRALQLRASRRGLHLTDEVGRFILNRGSRSMNSLFDLLEQLDRASLQAQRKLTIPFLKETLGW, MGSDKIHHHHHHMKQIKIGTCVPGPVAEEWLKGFVGKGFETFSLNFHMSLEGTDLDKLALSTEQILAGTDSKITTLGYYCNPIQYPEHRKTLEKVICTAEKFGATHVSTFAGAWEGKPVESAYEEFGKVFRELAELAEEKGVKLGIENCLMDGTWEHATCNIGFNPKAWEVMFEEVKNDNFGLEWEPTHQMVQLIDPVTELRKWCKKIVHVHGKDATIDWDAVRHGGISGAVPFVWHRMPGFGDTNWRDIISILRSNGYEDDICIEGYHDPVYRGELEMTGQLHALNYLKWCRGGEFTPTPWEK

Source: the DeepSol protein solubility set
